Reference: US10220090B2, “BCMA Antigen binding proteins” (Amgen Inc., priority 2012, dated 2019)

Tests used:
[1] = molecular target: [6xHistidine-SUMO]-huBCMA (SEQ ID NO:350) and its carboxy terminal clipped forms (Homo sapiens, UniProt Q02223); assay: Size exclusion chromatography and LC/MS of antibody complexes with Sumo-huBCMA and clipped forms; type: binding; settings: SEC and LC/MS; listed as 29C12
Text: To determine which forms of 6×His-SUMO-huBCMA were bound to the anti-huBCMA antibodies, the SEC fractions were isolated and analyzed. Carboxy-terminus fragments of the extracellular domain of human BCMA were generated as clipped forms from the rhuBCMA fusion protein (6×His::Sumo::huBCMA(aa 5-51)::GGS::G3::Avi) of SEQ ID NO:350, as shown in FIG. 45.
A Superdex 200™ 10/30 cm SEC column (GE Healthcare Life Sciences) was used according to the manufacturer's recommendations and run in phosphate buffered saline (PBS). Incubations of antibody with excess levels of sumoBCMA were performed at room temperature for at least 30 minutes.
(§1) A Superdex 200™ 10/30 cm SEC column (GE Healthcare Life Sciences) was used according to the manufacturer's recommended condision and run in phosphate buffered saline (PBS). Incubations of antibody with excess levels of sumoBCMA were performed at room temperature for at least 30 minutes.
5 ug of total proteins were reduced in 50 mM Tris/4 M guanidine/9 mM DTT, pH 8.0 at 55° C. for 15 min, and analyzed in Agilent LCTOF system using a Vydac C8 column, 2.1 mm ID×150 mm, […] particle size. […] TOF MS conditions included capillary voltage of 4000 V, drying gas flow at 10 L/min, dry gas temperature at 300° C., nebulizer gas flow at 40 L/min, and fragmentor voltage of 300 V. MS data was analyzed in Agilent MassHunter™ Qualitative Analysis program.

[2] = molecular target: T1, Sumo (cleaved from SumoBCMA) (Saccharomyces cerevisiae, UniProt Q12306); assay: Size exclusion chromatography control with Sumo; type: binding; settings: SEC control
T1 construct: 6xHis (N)
Description: as §1

human BCMA = molecular target: T2, human BCMA (Homo sapiens, UniProt Q02223, N81S); assay: FACS binding on cells transiently transfected to express full length BCMA
T2 construct: expressed in transfected cells
T2 sequence (Q02223 1-184 N81S): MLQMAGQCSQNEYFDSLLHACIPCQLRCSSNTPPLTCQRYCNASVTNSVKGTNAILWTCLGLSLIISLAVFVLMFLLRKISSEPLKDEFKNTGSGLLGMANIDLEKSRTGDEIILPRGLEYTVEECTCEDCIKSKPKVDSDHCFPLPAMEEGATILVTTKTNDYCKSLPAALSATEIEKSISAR
Description: (§2) An important criterion is exquisite selectivity for wild-type human BCMA expressed on the surface of cells. FACS binding on cells transiently transfected to express full length BCMA, TACI, or BAFF-R was performed using standard techniques. Approximately 40×10^6 of the transiently-transfected target cells were resuspended in a staining solution (2% goat serum, 1% rabbit serum, 0.02% azide in PBS) and aliquoted into round-bottom, 96-well plate (Corning Incorp., Acton, Mass.) as per the experiment design. The cells were incubated at 4 degrees celsius for 30 minutes to block non-specific sites. The antibodies were titrated into the staining solution. The cells were rinsed in a rinse solution (PBS+0.02% azide) by resuspending the cells in 200 ul/well. The cells were centrifuged at 1500 rpm at 4 degrees celsius for 7 minutes. The rinse solution was removed and the rinse step was repeated. The cells were resuspended in the appropriate antibody solution (see the matrix in TABLE 4) at 30 ul/well and incubated at 4 degrees celsius for 30 minutes. […] For the mouse IgG1 negative control and the two mouse antibodies (1.183 and 1.288), the secondary reagent was an anti-mouse IgG-PE conjugate (BD Pharmingen Cat. 550589). The cells/antibodies were rinsed as described above to remove excess/unbound antibody. […] Samples were read at 532 nm wavelength on FACS. […]

TACI = molecular target: T3, TACI (Homo sapiens, UniProt O14836); assay: FACS binding on cells transiently transfected to express full length TACI
T3 construct: expressed in transfected cells
T3 sequence (O14836 1-293): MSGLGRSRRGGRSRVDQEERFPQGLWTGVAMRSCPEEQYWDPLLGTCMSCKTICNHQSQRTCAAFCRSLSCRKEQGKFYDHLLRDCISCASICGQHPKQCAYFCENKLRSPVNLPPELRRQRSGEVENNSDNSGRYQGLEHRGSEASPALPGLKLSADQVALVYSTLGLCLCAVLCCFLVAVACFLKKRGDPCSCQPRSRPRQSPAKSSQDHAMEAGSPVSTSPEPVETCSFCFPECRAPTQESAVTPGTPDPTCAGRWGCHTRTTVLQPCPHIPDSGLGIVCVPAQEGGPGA
Description: as §2

[6xHistidine-SUMO]-huBCMA (SEQ ID NO:350) and its carboxy terminal clipped forms, sequence (Q02223 with tags, fused parts or gaps limits assumed): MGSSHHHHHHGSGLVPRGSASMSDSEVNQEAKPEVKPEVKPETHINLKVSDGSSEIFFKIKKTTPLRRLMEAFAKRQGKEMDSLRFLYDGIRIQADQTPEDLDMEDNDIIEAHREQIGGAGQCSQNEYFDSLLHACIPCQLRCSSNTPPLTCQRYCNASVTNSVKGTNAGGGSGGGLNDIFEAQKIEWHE
T1 sequence (Q12306 1-98 limits assumed): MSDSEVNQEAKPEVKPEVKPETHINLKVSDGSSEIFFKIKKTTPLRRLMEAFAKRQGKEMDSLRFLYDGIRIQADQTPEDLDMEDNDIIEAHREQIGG

B1: Ab-8: anti-huBCMA mAb of the second campaign, Vh SEQ ID NO:220, Vl SEQ ID NO:254 (antibody, V domains shown)
VH: EVQLLESGGALVQPGGSLRLSCAASGFTFSSYAMNWVRQAPGKGLEWVSAISVGGDTYYADSVKGRFTISRDNSKNTLYLQMNSLRAEDTAVYYCAKDQVTMVRGVWYYYGLDVWGQGTTVTVSS
VL: DIVMIQSPLSLPVTPGEPASISCRSSQSLLHSNGNNYLDWYLQKPGQSPHLLISLGSNRTSGVPDRFSGSGSGTDFTLKISRVEAEDVGVYYCMQALQPPRRFGQGTKLEIKR
binding to full-length and truncated fragments of human BCMA [1]: bound full-length and truncated forms of BCMA | binding to Sumo [2]: did not bind to Sumo

B2: Ab-6: anti-huBCMA mAb, Vh SEQ ID NO:216, Vl SEQ ID NO:250 (antibody, V domains shown)
VH: QVQLVESGGGVVQPGRSLRLSCAASGFTFSSYGLHWVRQAPGKGLEWVALISYDGSNKYYADSVKGRFTISRDNSKNTLYLQMNSLRAEDTAVYYCWYSSSWTPLDYWGQGTLVTVSS
VL: DIQMTQSPSSLSASVGDRVTITCRASQGIRNDLGWYQQKPGKAPKRLIYAASSLQSGVPSRFSGSGSGTEFTLTISSLQPEDFATYYCLQYYSYPLTFGGGTKVEIKR
BCMA (FACS binding) (human BCMA): + (A sample was considered positive for binding if the MFI was two times the negative control value) | TACI (FACS binding) (TACI): + (A sample was considered positive for binding if the MFI was two times the negative control value)
